Experimental findings from patent publication US5508261, “Analogs of glycoprotein hormones having altered receptor binding specificity and activity and methods for preparing and using same” (University of Medicine & Dentistry of New Jersey, dated 1996) are described below.

Residue numbers refer to the chain shown, from its start.

Test [1] concerns the target T1, bovine testes FSH receptors (bovine, UniProt P35376). Briefly: inhibition of 125I-hFSH binding to bovine testes FSH receptors. The method, then:
(§1) The concentrations of the analogs were determined by sandwich immunoassay using antibodies B105 and A113. The term "N.D." means not determined because concentrations of analog were not employed high enough to detect 50% inhibition.

For test [2], the target named is rat luteal ovarian LH receptors (rat, UniProt P16235). Briefly: inhibition of 125I-hCG binding to rat luteal ovarian LH receptors. The method, then:
as §1
An aliquot of the ligation mixture was taken and used to transform DH5-alpha strain E. coli. (obtained from Bethesda Research Laboratories, Gaithersburg, Md.). Plasmid DNAs from ampicillin-resistant DH5-alpha clones were screened by digestion with BglII (which is unique to vectors containing the cassette) and EcoRI (which cuts in the vector). Positive clones were identified by the presence of two fragments (approximately 0.8 Kbp and 2.9 Kbp). […] The remainder of the beta-subunit cDNA (encoding hCGβ amino acids 1–87) was restored by ligation of the 2.3 Kbp PvuI-PvuII fragment of this vector and the 2.9 Kbp PvuI-PvuII fragment from pSVL-hCG-beta'. […] After the DNA was subjected to a dideoxy sequencing procedure to confirm that it encoded "GT" (Table 1), the plasmid DNA was then cotransfected into COS-7 cells (obtained from the American Type Culture Collection) along with pSVL-hCG-alpha, a pSVL-based plasmid encoding the human glycoprotein hormone alpha-subunit (10, 21), using a DEAE-dextran procedure (10).

Test [3] addresses T1, bovine testes FSH receptors. Briefly: inhibition of 125I-hFSH binding to bovine testes FSH receptors (N.D. in Table 3).

B1: Analog "Q" (ligand)
chain 1: not shown
chain 2: SKEPLRPRCRPINATLAVEKEGCPVCITVNITICAGYCPTMTRVLQGVLPALPQVVCNYRDVRFESIRLPGCPRGVNPVVSYAVALSCQCALCDSDSTDCGGPKDHPSYCSFGE
On to B1, for which the binding result in test [1] is “no binding”. In addition, in test [2], the “activity relative to hCG (LH RECEPTORS; ratio of concentrations for 50% inhibition)” value is 0.15 relative to recombinant hCG.

B2: Analog "GT" (ligand)
chain 1: not shown
chain 2: SKEPLRPRCRPINATLAVEKEGCPVCITVNITICAGYCPTMTRVLQGVLPALPQVVCNYRDVRFESIRLPGCPRGVNPVVSYAVALSCQCALCRRSTTDCIHEAIKTNYCTKPQKSY
With B2, the binding result in test [3] is listed as “no binding”. Also, the “activity relative to hCG (LH RECEPTORS; ratio of concentrations for 50% inhibition)” value in test [2] is 0.33 relative to recombinant hCG.

B3: recombinant hFSH (ligand)
chain 1: not shown
chain 2: NSCELTNITIAIEKEECRFCISINITWCAGYCYTRDLVYKDPARPKIQKTCTFKELVYETVRVPGCAHHADSLYTYPVALQCHCGKCDSDSTDCTVRGLGPSYCSFGEMKE
In the case of B3, the binding result in test [2] is on record as “no binding”.

B4: recombinant hCG (ligand)
chain 1: not shown
chain 2: SKEPLRPRCRPINATLAVEKEGCPVCITVNITICAGYCPTMTRVLQGVLPALPQVVCNYRDVRFESIRLPGCPRGVNPVVSYAVALSCQCALCRRSTTDCGGPKDHPLTCDDPRFQDSSSSKAPPPSLPSPSRLPGPSDTPILPQ
With B4, the binding result in test [1] is “no binding”.

B5: Analog "D" (ligand)
chain 1: not shown
chain 2: B4 chain 2 with R94D, R95S, S96D, T97S
Turning to B5, the binding result in test [3] was “no binding”.
